Starred links: 1 amine or outer side, 2 acyl side, 3 side chain; linkers in the order of their positions; H or OH if unused. Non-standard residues stand in square brackets, D forms with d. No end group written: not given here. *: point of attachment. 5‑TAMRA = CN(C)c1ccc2c(-c3ccc(C(=O)*)cc3C(=O)[O-])c3ccc(N(C)C)cc3[o+]c2c1; Propanoyl(3-triazol-4-yl) = O=C(CCc1cn([*:1])nn1)[*:2]; Gly(piperidin-4-yl) = N[C@H](C(=O)O)C1CCNCC1; Pent4ynoyl = C#CCCC(=O)*; Pra = C#CC[C@H](N)C(=O)O
Key:
[1] = molecular target: T1, human neurotensin receptor type 1 (hNTS1R), endogenous in HT-29 colon carcinoma cells (human (endogenous in HT-29), UniProt P30989 1-418); assay: radioligand binding; competition with [^3H]UR-MK300 at intact hNTS1R-expressing HT-29 cells, 23 ± 1 °C; pIC50 converted to pKi (Cheng–Prusoff); conditions: one partner purified
T1 construct: human neurotensin receptor type 1 (hNTS1R), endogenously expressed in HT-29 colon carcinoma cells; also called HT-29 cells; source: endogenous, intact HT-29 colon carcinoma cells
T1 sequence (P30989 whole entry): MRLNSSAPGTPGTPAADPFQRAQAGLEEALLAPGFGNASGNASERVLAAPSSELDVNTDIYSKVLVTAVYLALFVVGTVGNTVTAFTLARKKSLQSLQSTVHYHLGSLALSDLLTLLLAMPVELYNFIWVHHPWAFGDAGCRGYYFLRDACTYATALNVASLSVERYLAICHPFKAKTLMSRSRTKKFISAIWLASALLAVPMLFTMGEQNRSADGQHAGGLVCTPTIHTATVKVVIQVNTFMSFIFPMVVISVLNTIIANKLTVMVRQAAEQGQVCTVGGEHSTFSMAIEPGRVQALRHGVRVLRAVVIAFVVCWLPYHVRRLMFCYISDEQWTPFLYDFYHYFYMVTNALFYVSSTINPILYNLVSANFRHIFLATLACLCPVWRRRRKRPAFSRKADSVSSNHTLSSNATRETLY

[2] = molecular target: T2, hNTS1R displayed on budded baculovirus particles (NTS1R-BBV) (human, UniProt P30989 1-418); assay: fluorescence polarisation; fluorescence anisotropy, equilibrium binding: fixed ligand (0.3 or 1 nM), increasing amounts of hNTS1R-displaying BBVs, signal at 10 min, 27 °C, DPBS2; unspecific binding with 1 μM SR142948; conditions: one partner purified
T2 construct: human neurotensin receptor type 1 (hNTS1R) from pcDNA3.1-hNTS1-NlucC, subcloned into pIMACE-CMVintP10; also called hNTS1R-displaying BBVs; hNTS1R-Nluc
T2 sequence (P30989 whole entry): as above

[3] = molecular target: T2, hNTS1R displayed on budded baculovirus …; assay: fluorescence polarisation; fluorescence anisotropy, association and dissociation (started with 1 μM SR142948) at hNTS1R-displaying BBVs, 27 °C, DPBS2; kon and Kd(kin) from a fit with koff constrained; conditions: one partner purified
[4] = molecular target: T3, human neurotensin receptor type 1 (hNTS1R), stably expressed in CHO cells (human, UniProt P30989 1-418); assay: flow cytometry on cells; association (1 nM ligand) and dissociation (10 nM preincubation, started with ca. 25 μM NT(8–13)) at intact suspended CHO-hNTS1R cells, 5 mL tubes, DPBS1, 23 ± 1 °C; kon and Kd(kin) calculated; conditions: one partner purified
T3 construct: human neurotensin receptor type 1 (hNTS1R), wild type, stably expressed in Chinese hamster ovary cells; also called CHO-hNTS1R cells; CHO-NTS1R cells; source: CHO cells stably expressing hNTS1R; intact adherent cells, intact suspended cells and membrane preparations
T3 sequence (P30989 whole entry): as above

[5] = molecular target: T3, human neurotensin receptor type 1 …; assay: high-content imaging (HCI) of fluorescent ligand on cells; association (2.5 nM ligand) and dissociation (started with 1 μM NT(8–13)) at intact adherent CHO-hNTS1R cells, DPBS1, 23 ± 1 °C; kon = (kobs – koff)/[FL], Kd(kin) = koff/kon; conditions: one partner purified
[6] = molecular target: T3, human neurotensin receptor type 1 …; assay: cell-based or functional assay
[7] = molecular target: T3, human neurotensin receptor type 1 …; assay: flow cytometry on cells; equilibrium saturation binding at intact suspended CHO-hNTS1R or HT-29 cells, 96-well plates, DPBS1, 23 ± 1 °C, homogeneous; unspecific binding with 1 μM NT(8–13); conditions: one partner purified
[8] = molecular target: T1, human neurotensin receptor type 1 …; assay: as above; conditions: one partner purified
[9] = molecular target: T4, human neurotensin receptor type 2 (hNTS2R) in homogenates of HEK293T cells (human, UniProt O95665 1-410); assay: radioligand binding; competition with [^3H]UR-MK300 at homogenates of HEK293T cells transiently transfected with hNTS2R; Tris buffer (50 mM Tris HCl, 1 mM EDTA, pH 7.4) with 0.1% BSA; conditions: one partner purified
T4 construct: human neurotensin receptor type 2 (hNTS2R); also called HEK293T-hNTS2R cells; source: HEK293T, transiently transfected, homogenates
T4 sequence (O95665 whole entry): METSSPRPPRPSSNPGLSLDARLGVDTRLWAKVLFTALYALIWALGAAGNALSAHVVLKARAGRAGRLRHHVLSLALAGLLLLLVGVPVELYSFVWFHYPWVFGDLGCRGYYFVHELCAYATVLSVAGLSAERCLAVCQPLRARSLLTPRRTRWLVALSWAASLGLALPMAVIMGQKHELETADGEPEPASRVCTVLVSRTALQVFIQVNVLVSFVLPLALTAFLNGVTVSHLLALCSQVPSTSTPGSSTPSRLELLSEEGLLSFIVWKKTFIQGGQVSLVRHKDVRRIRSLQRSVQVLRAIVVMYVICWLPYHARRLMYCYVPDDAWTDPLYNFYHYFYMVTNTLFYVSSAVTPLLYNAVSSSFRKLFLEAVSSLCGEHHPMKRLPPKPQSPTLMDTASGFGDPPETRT

[10] = molecular target: T3, human neurotensin receptor type 1 …; assay: high-content imaging (HCI) of fluorescent ligand on cells; equilibrium saturation binding at intact adherent CHO-hNTS1R or HT-29 cells, DPBS1 with 0.1% BSA, 23 ± 1 °C, washing step before reading; unspecific binding with 1 μM NT(8–13); conditions: one partner purified
[11] = molecular target: T1, human neurotensin receptor type 1 …; assay: as above; conditions: one partner purified
[12] = molecular target: T3, human neurotensin receptor type 1 …; assay: radioligand binding; saturation binding at intact suspended CHO-hNTS1R cells, 96-well plates, filtration, DPBS1 with 1% BSA, 23 ± 1 °C; conditions: one partner purified
[13] = molecular target: T3, human neurotensin receptor type 1 …; assay: radioligand binding; saturation binding at intact adherent cells (CHO-hNTS1R or HT-29), DPBS1 with 1% BSA, 23 ± 1 °C; radioligand 1:1 diluted with its cold analogue; conditions: one partner purified
[14] = molecular target: T1, human neurotensin receptor type 1 …; assay: as above; conditions: one partner purified
[15] = molecular target: T3, human neurotensin receptor type 1 …; assay: radioligand binding; saturation binding at membranes of CHO-hNTS1R cells, DPBS1 with 50 μM GppNHp and 100 μg/mL saponin, 23 °C; conditions: one partner purified
[16] = molecular target: T3, human neurotensin receptor type 1 …; assay: radioligand binding; association (1.3 nM [^3H]13, 1.1 nM [^3H]18; biphasic fit) and dissociation (started with 1 μM NT(8–13)) at intact adherent CHO-hNTS1R cells, DPBS1, 23 ± 1 °C; kon(fast) and Kd(kin) calculated; conditions: one partner purified
[17] = molecular target: T3, human neurotensin receptor type 1 …; assay: radioligand binding; association (1.8 nM [^3H]13, 1.2 nM [^3H]18; 96-well plates; biphasic fit) and dissociation (50 mL falcon tubes, started with 25 μM NT(8–13)) at intact suspended CHO-hNTS1R cells, DPBS1, 23 ± 1 °C; kon(fast) and Kd(kin) calculated; conditions: one partner purified
[18] = molecular target: T3, human neurotensin receptor type 1 …; assay: radioligand binding; association (2.5 nM) and dissociation (12 nM preincubation, 30 min) at membranes of CHO-hNTS1R cells, DPBS1 with 50 μM GppNHp and 100 μg/mL saponin, 23 °C; kon and Kd(kin) calculated; conditions: one partner purified

B1: 5-TAMRA-labeled, propionylated NT(6–13) derivative 16 (peptide)
chain: {4‑(N-propanoyl)aminobutanoyl}-X[Gly(piperidin-4-yl)]PRRPYIL
modifications: not fully specified (residue 1); printed as *N*^α^-[(4-(*N*-Propanoyl)aminobutanoyl)]-2-(1-(1-*N*-((1-carboxylato-2-(6-(dimethylamino)-3-(dimethyliminio)-3*H*-xanthen-9-yl)phen-5-yl)1-oxomethyl)aminoprop-3-yl-1*H*-1,2,3-triazol-4-yl)methyl)-Gly-2-(piperidin-4-yl)-Gly-Pro-Arg-Arg-Pro-Tyr-Ile-Leu
B1 was tested. Which Ki [1] did it give?
Its Ki is 0.77 nM.

B2: 5-TAMRA-labeled, propionylated NT(6–13) derivative 13 (UR-FE051) (peptide)
chain: XPRRPYIL
modifications: N-terminus: 5-TAMRA attached through a 3-(1H-1,2,3-triazol-4-yl)propanoyl group; position 6 (X) = 2-(piperidin-4-yl)-Gly (pipGly); Arg8 = N^ω-[(4-(N-propanoyl)aminobutyl)aminocarbonyl]Arg
B2 was tested. Which Kd [2] did it give?
Its Kd is 1.3 nM.

What about the Kd [3] of the same binder?
The Kd was 1 nM.

And the koff [3]?
Its koff is 0.0102 s⁻¹.

What about the kon [3] of the same binder?
Its kon is 1.67e+07 M⁻¹ s⁻¹.

And the Kd [4]?
Its Kd is 0.041 nM.

And the koff [4]?
Its koff is 0.000333 s⁻¹.

And the kon [4]?
Its kon is 8e+06 M⁻¹ s⁻¹.

And the Kd [5]?
Its Kd is 2.8 nM.

What about the koff [5] of the same binder?
The koff was 0.000733 s⁻¹.

What about the kon [5] of the same binder?
The kon was 267000 M⁻¹ s⁻¹.

And the “EC50 of NTS1R agonism, Fura-2 Ca^2+ assay at CHO-NTS1R cells” value [6]?
The value was 0.05 nM.

What about the Kd [7] of the same binder?
Its Kd is 2.6 nM.

And the Kd [8]?
Its Kd is 0.25 nM.

What about the Ki [1] of the same binder?
The Ki was 1.1 nM.

What about the Ki [9] of the same binder?
The Ki was 2.4 nM.

What about the Kd [10] of the same binder?
The Kd was 1.1 nM.

What about the Kd [11] of the same binder?
The Kd was 4.7 nM.

B3: N^α-(Pent-4-ynoyl)-2-(piperidin-4-yl)-Gly-Pro-N^ω-[(4-aminobutyl)aminocarbonyl]Arg-Arg-Pro-β,β-dimethyl-D-Tyr-Ile-Leu (10b) (peptide)
chain: XPRRPYIL
modifications: N-terminal N^α-(pent-4-ynoyl); position 6 (X) = 2-(piperidin-4-yl)-Gly (pipGly); Arg8 = N^ω-[(4-aminobutyl)aminocarbonyl]Arg; position 11 = β,β-dimethyl-D-Tyr
How did the Ki [1] turn out when B3 was run?
Its Ki is 140 nM.

B4: 5-TAMRA-labeled, propionylated NT(6–13) derivative 15 (peptide)
peptide: {5‑TAMRA-Propanoyl(3-triazol-4-yl)}-[dK](propanoyl)PRRPYIL
notes: neurotensin NT(6–13) with D-Lys at position 6, printed in three-letter code; numbers count on: the mature neurotensin; also called peptide 15; source: synthetic peptide (from 8 by propionylation and click reaction, preparative HPLC)
Which Ki [1] does the source give for B4 here?
The Ki was 3 nM.

B5: N^α-(Pent-4-ynoyl)-D-Lys-Pro-Arg-Arg-Pro-Tyr-Ile-Leu (8) (peptide)
peptide: Pent4ynoyl-[dK]PRRPYIL
notes: neurotensin NT(6–13) with D-Lys at position 6, printed in three-letter code; numbers count on: the mature neurotensin; also called peptide 8; source: synthetic peptide (SPPS, preparative HPLC)
How did the Ki [1] turn out when B5 was run?
The Ki was 0.85 nM.

B6: N^α-(Pent-4-ynoyl)-2-(piperidin-4-yl)-Gly-Pro-N^ω-[(4-aminobutyl)aminocarbonyl]Arg-Arg-Pro-Tyr-Ile-Leu (6) (peptide)
chain: XPRRPYIL
modifications: N-terminal N^α-(pent-4-ynoyl); position 6 (X) = 2-(piperidin-4-yl)-Gly (pipGly); Arg8 = N^ω-[(4-aminobutyl)aminocarbonyl]Arg
For B6, which “EC50 of NTS1R agonism, Fura-2 Ca^2+ assay at CHO-NTS1R cells” value [6] is on record?
Its value is 0.0065 nM.

What about the Ki [1] of the same binder?
Its Ki is 0.64 nM.

B7: N^α-(4-Aminobutanoyl)-2-(prop-2-ynyl)-Gly-2-(piperidin-4-yl)-Gly-Pro-Arg-Arg-Pro-Tyr-Ile-Leu (9) (peptide)
chain: {4‑aminobutanoyl}-[Pra][Gly(piperidin-4-yl)]PRRPYIL
For B7, which Ki [1] is on record?
Its Ki is 0.33 nM.

B8: [^3H]13, tritiated analogue of the 5-TAMRA-labeled peptide 13 (peptide)
chain: XPRRPYIL
modifications: as 13, with a [^3H]propionyl instead of the propionyl group at the N^ω-carbamoylated Arg8; N-terminal 5-TAMRA through a triazolylpropanoyl group; position 6 (X) = pipGly
Which results are given for B8?
Kd [12]: 1.8 nM; Kd [13]: 1.3 nM; Kd [14]: 1.2 nM; Kd [15]: 6.2 nM; koff [16]: 0.000233 s⁻¹; koff [17]: 0.0006 s⁻¹; Kd [18]: 2.7 nM; koff [18]: 0.00617 s⁻¹; kon [18]: 2.17e+06 M⁻¹ s⁻¹

B9: N^α-(Pent-4-ynoyl)-Lys-Pro-Arg-Arg-Pro-Tyr-Ile-Leu (7) (peptide)
peptide: Pent4ynoyl-KPRRPYIL
notes: neurotensin NT(6–13), printed in three-letter code; numbers count on: the mature neurotensin; also called peptide 7; source: synthetic peptide (SPPS, preparative HPLC)
B9 was tested. Which Ki [1] did it give?
The Ki was 0.54 nM.

B10: [^3H]18, tritiated analogue of the Cy3B-labeled peptide 18 (peptide)
chain: XPRRPYIL
modifications: as 18, with a [^3H]propionyl instead of the propionyl group at the N^ω-carbamoylated Arg8; N-terminal Cy3B through a triazolylpropanoyl group; position 6 (X) = pipGly; position 11 = …
What does the source list for B10?
Kd [12]: 1.2 nM; Kd [13]: 1.1 nM; Kd [14]: 1.9 nM; koff [16]: 0.000433 s⁻¹; koff [17]: 0.0005 s⁻¹

B11: 5-TAMRA-labeled, propionylated NT(6–13) derivative 14 (peptide)
peptide: {5‑TAMRA-Propanoyl(3-triazol-4-yl)}-K(propanoyl)PRRPYIL
notes: neurotensin NT(6–13), printed in three-letter code; numbers count on: the mature neurotensin; also called peptide 14; source: synthetic peptide (from 7 by propionylation and click reaction, preparative HPLC)
For B11, which Ki [1] is on record?
Its Ki is 1.5 nM.

B12: N^α-(Pent-4-ynoyl)-2-(piperidin-4-yl)-Gly-Pro-N^ω-[(4-aminobutyl)aminocarbonyl]Arg-Arg-Pro-β,β-dimethyl-L-Tyr-Ile-Leu (10a) (peptide)
chain: XPRRPYIL
modifications: N-terminal N^α-(pent-4-ynoyl); position 6 (X) = 2-(piperidin-4-yl)-Gly (pipGly); Arg8 = N^ω-[(4-aminobutyl)aminocarbonyl]Arg; position 11 = β,β-dimethyl-L-Tyr
What does the source list for B12?
EC50 of NTS1R agonism, Fura-2 Ca^2+ assay at CHO-NTS1R cells [6]: 0.32 nM; Ki [1]: 1.1 nM

Reference: paper PMC11440508, “Dually Labeled Neurotensin NTS1R Ligands for Probing Radiochemical and Fluorescence-Based Binding Assays” (Journal of Medicinal Chemistry, 2024)
